US20220267462A1 (HARPOON THERAPEUTICS, published 2022)

T1: cynomolgus EpCAM protein (cynomolgus, UniProt Q1WER1 27-265 (rhesus entry), limits assumed, biotinylated in the Octet assays (site not stated))
T1 construct: also called cy EpCAM; biotinylated cynomolgus EpCAM protein
T1 sequence: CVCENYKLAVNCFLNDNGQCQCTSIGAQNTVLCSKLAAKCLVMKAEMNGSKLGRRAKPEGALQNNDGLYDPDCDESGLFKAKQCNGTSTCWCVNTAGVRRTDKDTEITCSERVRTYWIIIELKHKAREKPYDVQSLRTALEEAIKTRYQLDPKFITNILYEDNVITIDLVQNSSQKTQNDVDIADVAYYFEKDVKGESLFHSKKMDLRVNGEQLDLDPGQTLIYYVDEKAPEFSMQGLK

T2: human EpCAM protein (human, UniProt P16422 24-265, biotinylated in the Octet assays (site not stated))
T2 construct: also called hu EpCAM; biotinylated human EpCAM protein
T2 sequence: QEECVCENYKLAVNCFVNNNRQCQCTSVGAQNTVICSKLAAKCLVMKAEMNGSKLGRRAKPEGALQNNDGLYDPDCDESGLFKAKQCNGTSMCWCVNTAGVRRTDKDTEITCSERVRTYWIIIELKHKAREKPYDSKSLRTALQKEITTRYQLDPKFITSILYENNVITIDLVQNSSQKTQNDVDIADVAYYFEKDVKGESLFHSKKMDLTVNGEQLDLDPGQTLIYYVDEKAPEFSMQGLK


Experiments:
cynomolgus EpCAM protein = molecular target: T1, cynomolgus EpCAM protein; assay: colorimetric ELISA
Source text: (§1) A phage display library for expression of heavy variable antibody domains was constructed from circulating B cells. See van der Linden, de Geus, Stok, Bos, van Wassenaar, Verrips, and Frenken. 2000. J Immunol Methods 240:185-195.

human EpCAM protein = molecular target: T2, human EpCAM protein; assay: colorimetric ELISA
Source text: as §1

| Binder | Cynomolgus EpCAM/Control (cynomolgus EpCAM protein) | Human EpCAM/Control (human EpCAM protein) |
| --- | --- | --- |
| EPL126 (VHH) VHH: QVQLQESGGGLVQAGGSLRLSCAASGFIFRAASMGWYRQSPGNERELVATINSGGFTNYADSVKGRFTISRDNAKNTGYLQMNSLKPEDTAVYFCAATFLRSDGQPPIWGQGTQVTVSS | 4 | 5 |
| EPL120 (VHH) VHH: QVQLQESGGGLVQAGGSLRLSCAASGFIFRAASISWYRQSPGNERELVATINSGGFTNYADSVLGRFTISRDNAKNTGYLQMNSLKPEDTAVYFCAATFLRSDGQPPIWGQGTQVTVSS | 4 | 5 |
| EPL138 (VHH) VHH: QVQLQESGGGLVQAGGSLRLSCAASGFIFRAASMDWYRQFPGNERESIATISSGGFTNYADSVKGRFTISRDNAKNTVYLQMNSLKPEDTAVYFCGATFLRSDGHHTINGQGTQVTVSS | 3 | 3 |
| EPL109 (VHH) VHH: QVQLQESGGGLVQPGGSLRLSCASSGFTLDDYTIGWFRQAPGKEREGVSCISRRDDSTYYADSVKGRFTISRDNAKNTVDLQMISLRPEDTAVYYCAATPRSYTLRCLGKFDFQGQGTQVTVSS | 2 | 5 |
| EPL152 (VHH) VHH: QVQLQESGGGLVQAGGSLRLSCVHSGSIFRASTMAWYRQAPGKQRELVAQIMSGGGTNYAGSVKGRFTISRDNANNTVYLQMNSLKPEDTAVYYCNAAQITSWGPKVYWGQGTQVTVSS | 4 | 4 |
| EPL31 (VHH) VHH: QVQLQESGGGLVHTGGSLRLSCAASGDTFLRYAMGWFRQAPGKEREFVAAITWNGGNTDYAGSLKGRFTISRDNTKNTVYLQMNSLKPEDTAVYYCAADLTFGLASSHYQYDYWGQGTQVTVSS | 6 | 7 |
| EPL55 (VHH) VHH: QVQLQESGGGLVQAGGSLRLSCAASGDTFLRYAMGWFRQAPGKEREFVAAITWNGGNTDYAGSLKGRFTISRDNTKNTVYLQMNSLKPEDTAVYYCAADLTFGLASSHYQYDYWGQGTQVTVSS | 7 | 5 |
| EPL127 (VHH) VHH: QVQLQESGGGLVQAGGSLRLSCAAPGFAFNDHAILWFRQAPGKEREGVSEICRDGTTYYTDSVKGRFTISSDNAKNTVYLQMNSVKTDDTAVYYCAVDRRRYYCSGNRAFSSDYYYWGQGTQVTVSS | 11 | 5 |
| EPL2 (VHH) VHH: QVQLQESGGGLVQPGGSLRLSCAASESISSFIAVGWYRQAPGKERELVAGINRSGFTYYTDSVKGRFSISRDNAKNTVLLQMTSLKPEDTAVYYCNAGGLYFSNAYTQGDYWGQGTQVTVSS | 24 | 15 |
| EPL49 (VHH) VHH: QVQLQESGGGLVQAGGSLRLSCAPSGRTSSIFGMGWFRQAPGKEREFVASINWSGGSTSYADSVKGRFTISRDNAKNEMYLQMNSLKFEDTAVYVCAAAVLTNKPSWNFWGQGTQVTVSS | 4 | 8 |
| EPL15 (VHH) VHH: QVQLQESGGGSVLAGGSLRLSCAASGFTFSSYYMSWVRQAPGKGLEWVSGIHYTGDWTNYADSVKGRFTISRDNAKNELYLEMNNLKPEDTAVYYCARGSDKGQGTQVTVSS | 35 | 8 |
| EPL78 (VHH) VHH: QVQLQESGGGLVQPGGSLRLSCATSANRFNINVMGWYRQAPGQQRELVATINIGGSTDYADSVKGRFTISRDNAKNTVYLQLSDLKPEDTAVYYCNVKLRVSGPTGPNVYWGQGTQVTVSS | 11 | 17 |

Now from value to binder:

| Cynomolgus EpCAM/Control (cynomolgus EpCAM protein) | Human EpCAM/Control (human EpCAM protein) | Binder |
| --- | --- | --- |
| 5 | 8 | EPL97 (VHH) VHH: QVQLQESGGGLVQAGGSLRLSCAASGIIFRGTTMGWFRQAPGKQRESVASISPLGTTSYSGSVEGRFTVSRDNAKNTLFLQMNSLKSEDTAVYYCNAIQVTNVGPRVYWGQGTQVTVSS |
| 3 | 4 | EPL117 (VHH) VHH: QVQLQESGGGLVQAGGSLRLSCAASGNIVRMTNMAWYRQAPGKQREFVATISAGGSTTYVDSVKDRFTISRDNTKNTVYLQMNYLKPEDTAVYYCATGSILTNRGAIPGSWGHGTQVTVSS |
| 5 | 4 | EPL82 (VHH) VHH: QVQLQESGGGLVQAGGSLKLSCTASGTILSTMAWYRQAPGKQRELVATISRGGTTNYSDSVKGRFAISRDSTKNTVYLQMNSLKPEDTAVYYCNTPLTDYGMGYNWGQGTQVTVSS |
| 10 | 10 | EPL90 (VHH, llama anti-EpCAM heavy chain only single domain antibody; tested as E. coli periplasmic extract) VHH: QVQLQESGGGLVQAGGSLRLSCAASGFIFRAASMAWYRQSPGNERELVASISSGAFTNYADSVKARFTISRDNAKNTVYLQMNSLKPEDTAVYFCGATFLRSDGHHTINGQGTQVTVSS |
| 4 | 5 | EPL118 (VHH) VHH: QVQLQESGGGLVQAGGSLRLSCAASGFIFRAASMGWFRQSPGNERELVATVSSGDFTNYADSVKGRFTISRDNAKNTVYLQMNSLKPEDTAVYFCGATFVRSDGHHTIYGQGTQVTVSS |
| 34 | 7 | EPL164 (VHH) VHH: QVQLQESGGGLVQAGGSLRLSCAASGFIFRAASMDWYRQSPGTQPELVATISSTGFTNYANSVKGRFTISRDNAKNTVYLQMNSLKPEDTAVYFCGATFLRSDGQHSIYGQGTQVTVSS |
| 9 | 12 | EPL10 (VHH) VHH: QVQLQESGGGLVQAGGSLRLSCAASGSVFRANVMGWYRQAPGKQHELVARIDPGGTTTYADPVKGRFTISRDNAKKTVYLQMNSLKPDDTAVYYCNAIILLSGGPKDYWGQGTQVTVSS |
| 2 | 3 | EPL83 (VHH) VHH: QVQLQESGGGLVQAGGSLRLSCAVSGSIFSLNTLAWYRQAPGRQRDLIARITGGGTTVYADSVKGRFTISRDNAKNTVYLQMNSLKPEDTAVYYCNLMVRHPSGSTYEYWGQGTQVTVSS |
| 13 | 9 | EPL136 (VHH) VHH: QVQLQESGGGLVQPGGSLRLSCAASGDTFLRYAMGWFRQAPGKEREFVAAITWNGGNTDYAGSLKGRFTISRDNTKNTVYLQMNSLKPEDTAVYYCAADLTFGLASSHYQYDYWGQGTQVTVSS |
| 27 | 14 | EPL57 (VHH) VHH: QVQLQESGGGLVHTGGSLRLSCAFSGDTFLRYAMGWFRQAPGKEREFVAAITWNGGNTDYADSLKGRFTISRDNTKNTVYLQMNSLRPEDTAVYYCAADLTFGLASSHYQYDYWGQGTQVTVSS |
| 5 | 10 | EPL74 (VHH) VHH: QVQLQESGGGLVQAGGSLRLSCAASGSIFGINAMGWYRQAPGKQRESVAFITIGGNTNYLDSVKGRFTISRDNAKNTVYLQMNGLKPEDTAVYYCNTNPPLILTAGGLYWGQGTQVTVSS |
| 27 | 13 | EPL43 (VHH) VHH: QVQLQESGGGLVQTGGSLRLSCAASESISSFIAVGWYRQAPGKERELVAGINRSGFTYYTDSVKGRFSISRDNAKNTVLLQMTSLKPEDTAVYYCNAGGLYFSNAYTQGDYWGQGTQVTVSS |
| 8 | 12 | EPL189 (VHH) VHH: QVQLQESGGGLVQPGGSLRLSCAASGRINSINTMGWYRQAPGNQRELVAEITRGGTTNYADSVQGRYAISRDNAKNLVYLQMNSLKPEDTDVYYCNAQTFPTFSRPTGLDYWGQGTQVTVSS |
| 4 | 8 | EPL58 (VHH) VHH: QVQLQESGGGLVQAGGSLRLSCAASGPIFSDTIRTMGWYRQAAGKQRELVATIASFPSRTNYVDSVKGRFTISRDIAKNTVYLQMDSLKPEDTAVYYCNVDLASIPTKTYWGQGTQVTVSS |
| 36 | 10 | EPL34 (VHH) VHH: QVQLQESGGGSVQAGGSLRLSCAASGFTFSSYYMSWVRQAPGKGLEWVSGIHYTGDWTNYADSVKGRFTISRDNAKNELYLEMNNLKPEDTAVYYCARGSDKGQGTQVTVSS |
